Results: PMC8070244, “The MarR-Type Regulator PA3458 Is Involved in Osmoadaptation Control in Pseudomonas aeruginosa” (International Journal of Molecular Sciences, 2021)

Target: the molecule itself
Test: SEC-MALS; 100 uL of 1 mg/ml sample on Superdex 200 Increase 10/300 in LEW buffer (50 mM NaH2PO4, 300 mM NaCl pH 8), room temperature, 0.5 mL/min

B1: PA3458-His6 (natural protein, Pseudomonas aeruginosa PAO1161, UniProt Q9HYE8 1-157, looked up)
chain: MVESNKTAADTYSLAIFRAIRRLQQAAEIHSKRLSRYGGLTPLQLLILHVLAVEGELTATQLAKLVSLSQASLSGVLDRLEGRGLLYRRRDEQDRRKSWLHLDPAGHEALAEAPPLLPEYVIERFAALPEWERHGLLAALLRAADLFGLPEEDVEEE
notes: PA3458, MarR-type transcriptional regulator of Pseudomonas aeruginosa PAO1161 (locus D3C65_07830; PAO1 ortholog PA3458), 157 residues (17.6 kDa); the gene was amplified with primers 13#/14# (forward primer begins at the ATG; 483 bp fragment) and cloned NcoI/HindIII in pET28a; it says that the gene (157 codons) was cloned as a PA3458-his6 fusion, with the forward primer starting at the ATG; Linker …
stoichiometry N: 4
